T1: GFP-9S library array, motif 4 ND N98A;D124I (synthetic construct, N98A;D124I)
T1 chain: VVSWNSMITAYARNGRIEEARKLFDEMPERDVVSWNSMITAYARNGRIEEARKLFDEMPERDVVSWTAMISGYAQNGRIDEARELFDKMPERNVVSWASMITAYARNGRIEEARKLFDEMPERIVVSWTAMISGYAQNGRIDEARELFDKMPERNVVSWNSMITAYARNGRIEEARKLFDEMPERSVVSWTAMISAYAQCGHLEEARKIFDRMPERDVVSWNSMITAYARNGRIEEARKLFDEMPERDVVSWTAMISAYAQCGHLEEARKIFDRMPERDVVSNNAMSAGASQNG

T2: GFP-9S library array, motif 4 ND N98S;D124M (synthetic construct, N98S;D124M)
T2 chain: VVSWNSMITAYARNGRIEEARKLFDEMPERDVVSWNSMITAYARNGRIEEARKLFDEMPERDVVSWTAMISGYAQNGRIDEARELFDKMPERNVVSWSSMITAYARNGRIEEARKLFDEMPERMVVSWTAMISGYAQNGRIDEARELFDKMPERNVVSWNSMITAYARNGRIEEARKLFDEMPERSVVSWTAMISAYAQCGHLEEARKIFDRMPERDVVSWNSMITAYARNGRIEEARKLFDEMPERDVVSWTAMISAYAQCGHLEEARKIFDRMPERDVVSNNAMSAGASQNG

T3: GFP-9S library array, motif 4 ND N98D;D124K (synthetic construct, N98D;D124K)
T3 chain: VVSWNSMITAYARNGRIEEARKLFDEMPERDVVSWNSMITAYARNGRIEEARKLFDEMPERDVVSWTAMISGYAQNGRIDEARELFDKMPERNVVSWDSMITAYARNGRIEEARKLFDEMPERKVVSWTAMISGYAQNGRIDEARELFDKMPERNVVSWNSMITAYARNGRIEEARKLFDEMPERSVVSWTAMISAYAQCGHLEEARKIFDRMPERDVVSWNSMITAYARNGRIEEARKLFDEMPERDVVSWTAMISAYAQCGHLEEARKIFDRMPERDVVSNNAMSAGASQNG

T4: GFP-9S library array, motif 4 ND N98S;D124R (synthetic construct, N98S;D124R)
T4 chain: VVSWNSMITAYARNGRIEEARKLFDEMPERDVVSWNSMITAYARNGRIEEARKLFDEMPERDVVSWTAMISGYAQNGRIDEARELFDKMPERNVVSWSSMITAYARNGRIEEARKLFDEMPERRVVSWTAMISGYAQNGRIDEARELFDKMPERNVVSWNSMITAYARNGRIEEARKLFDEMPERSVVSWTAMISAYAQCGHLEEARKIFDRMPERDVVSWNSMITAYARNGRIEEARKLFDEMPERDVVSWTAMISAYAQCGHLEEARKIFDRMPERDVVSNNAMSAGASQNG

T5: GFP-9S library array, motif 4 ND N98G;D124H (synthetic construct, N98G;D124H)
T5 chain: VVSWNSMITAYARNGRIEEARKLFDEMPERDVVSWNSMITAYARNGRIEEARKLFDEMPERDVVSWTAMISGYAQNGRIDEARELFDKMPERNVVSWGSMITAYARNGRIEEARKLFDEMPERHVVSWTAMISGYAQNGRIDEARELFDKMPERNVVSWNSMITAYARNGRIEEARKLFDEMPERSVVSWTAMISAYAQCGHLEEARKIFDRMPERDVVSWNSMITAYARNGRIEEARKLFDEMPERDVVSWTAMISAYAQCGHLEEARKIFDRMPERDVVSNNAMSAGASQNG


Legend:
Test in all cases: high-throughput RNA pulldown from lysate on Ni-NTA beads; HRP: 50 mM Tris pH 8, 150 mM NaCl, 1 mM beta-mercaptoethanol, 50 ug/ml BSA, 3 ug/ml yeast RNA, 0.5% heparin; ITC and FP: Tris pH 8, 200 mM KCl, 5% glycerol; MST: 50 mM Tris pH 8, 200 mM NaCl, 1 mM DTT, BSA, heparin, 0.05% Tween 20
Conditions in all cases: tags: N-terminal His-eGFP
[1] = target: T1, GFP-9S library array, motif 4 ND …
[2] = target: T2, GFP-9S library array, motif 4 ND …
[3] = target: T3, GFP-9S library array, motif 4 ND …
[4] = target: T4, GFP-9S library array, motif 4 ND …
[5] = target: T5, GFP-9S library array, motif 4 ND …

Row | Binder | Kd ([1]; label: 5' IRDye 800CW) [nM] | Kd ([2]; label: 5' IRDye 800CW) [nM] | Kd ([3]; label: 5' IRDye 800CW) [nM] | Kd ([4]; label: 5' IRDye 800CW) [nM] | Kd ([5]; label: 5' IRDye 800CW) [nM] | Kd ([1]; label: 5' Cy5) [nM] | Kd ([2]; label: 5' Cy5) [nM] | Kd ([3]; label: 5' Cy5) [nM] | Kd ([4]; label: 5' Cy5) [nM] | Kd ([5]; label: 5' Cy5) [nM]
1 | AUUAAACGUGA (ssRNA) [IR-rpoA-A] | 203 | 369 | 334 | 63.5 | 114 | – | – | – | – | –
2 | AUUACACGUGA (ssRNA) [Cy5-rpoA] | – | – | – | – | – | 103 | 120 | 154 | 87.7 | 91.1
3 | AUUAGACGUGA (ssRNA) [Cy5-rpoA-G] | – | – | – | – | – | 107 | 183 | 134 | 97.8 | 108
4 | AUUAUACGUGA (ssRNA) [IR-rpoA-U] | 249 | 160 | 475 | 109 | 136 | – | – | – | – | –

— paper PMC8809517, “Cofactor-independent RNA editing by a synthetic S-type PPR protein”
